# US20260193365A1 (GRANITE BIO, published 2026)
# Residue numbers refer to the chain shown, from its start.
# T1: human CCR2 (human, UniProt O18793 1-360 (rhesus entry))
# T1 construct: On primary human monocytes/PBMC and on human-CCR2 transfected CHO cells; also called C-C Motif Chemokine Receptor 2; CD192
# T1 chain: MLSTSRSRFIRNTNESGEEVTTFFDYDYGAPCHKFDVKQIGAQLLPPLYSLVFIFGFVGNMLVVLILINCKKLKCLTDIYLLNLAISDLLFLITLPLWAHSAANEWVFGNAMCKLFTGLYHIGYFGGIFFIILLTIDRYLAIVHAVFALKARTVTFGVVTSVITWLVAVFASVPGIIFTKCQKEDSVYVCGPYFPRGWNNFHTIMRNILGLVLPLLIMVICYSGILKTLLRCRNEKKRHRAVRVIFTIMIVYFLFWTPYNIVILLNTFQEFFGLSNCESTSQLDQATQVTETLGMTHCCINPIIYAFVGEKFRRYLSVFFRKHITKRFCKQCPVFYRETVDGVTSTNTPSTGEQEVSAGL
# T2: Marmoset monkey (Callithrix jacchus) CCR2 (Marmoset monkey (Callithrix jacchus), UniProt O18793 1-360)
# T2 construct: On primary marmoset monocytes (marmoset blood/PBMC); they may hold print errors; also called marmoset CCR2; marmoset CCR2b
# T2 chain: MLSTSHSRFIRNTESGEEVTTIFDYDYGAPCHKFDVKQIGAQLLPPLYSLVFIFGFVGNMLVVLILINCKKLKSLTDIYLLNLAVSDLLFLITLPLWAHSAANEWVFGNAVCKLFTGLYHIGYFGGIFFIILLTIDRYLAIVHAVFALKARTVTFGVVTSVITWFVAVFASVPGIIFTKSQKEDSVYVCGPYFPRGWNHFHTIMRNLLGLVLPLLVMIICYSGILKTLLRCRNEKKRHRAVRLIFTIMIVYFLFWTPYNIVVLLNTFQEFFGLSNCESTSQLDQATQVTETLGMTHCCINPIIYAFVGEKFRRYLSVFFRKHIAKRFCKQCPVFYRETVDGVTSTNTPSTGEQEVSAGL
# B1: DOC3-RHLXRKA (antibody, human IgG1, kappa, V domains shown)
# VH: QVQLQESDPGLVKPSETLSLTCTVSGFSISRYDLSWIRQPPGKGLEWIGVIWTGGGTNYNSAFMSRLTISKDTSKNQVSLKLSSVTAADTAVYYCARENYYNRRGYFDVWGQGTMVTVSS
# VL: EIVLTQSPATLSLSPGERATLSCSASSSVSYMHWFQQKPGQAPRLLIYLTSNLASGIPARFSGSGSGTDFTLTISSLEPEDFAVYYCQQRSGSPPTFGPGTKLDIKR
# B2: DOC2 chim. (antibody, human IgG1, kappa, V domains shown)
# VH: EVQLVESGGGLVKPGGSLKLSCVASGFTLSNYAMSWVRQSPEKRLEWVAEVSSSGIYIYYSDTVTGRFSISRDNAKNTLYLEMSSLRSEDTAIYYCARDRYAYAMDYWGHGTSVIVSS
# VL: DIVMTQSPSSLAISVGQRVTLSCKSSQSLLNSYNQKNSLAWYQQKPGQSPKLLVYFASTRESGVPDRFIGSGSGTYFTLTITSVQAGDLADYFCQQHYSNPRTFGGGTRLEIKR
# B3: DOC3 chim. (antibody, human IgG1, kappa, V domains shown)
# VH: QVQLKESGPGLVAPSQSLSITCTVSGFSLTRYDLSWIRQPPGKGLQWLGVIWTGGGTNYNSAFMSRLSIRKDNSKSQVFLKMNSLQTDDTAIYYCVRENYYNRRGYFDVWGAGTTVTVSS
# VL: QIVLTQSPAIMSTSPGEKVTITCSASSSVSYMHWFQQKPGTSPKLWIYLTSNLASGVPARFSGSGSGTSYSLTINRMEAEDAATYYCQQRSGSPPTFGTGTKLELRR
# B4: DOC2-RHBXRKB (antibody, human IgG1, kappa, V domains shown)
# VH: EVQLVESGGGVVQPGRSLRLSCAASGFTLSNYAMSWVRQAPGKGLEWVAEVSSSGIYIYYSDTVTGRFSISRDNSKNTLYLQMNSLRAEDTAVYYCARDRYAYAMDYWGQGTLVIVSS
# VL: DIVMTQSPDSLAVSLGERATINCKSSQSLLNSYNQKNSLAWYQQKPGQPPKLLVYFASTRESGVPDRFSGSGSGTDFTLTISSLQAEDVAVYFCQQHYSNPRTFGGGTKLEIKR
# notes: The number agrees with the antibody's name and was used
# B5: DOC2-RHAXRKB (antibody, human IgG1, kappa, V domains shown)
# VH: B4 VH with S69T, I115T
# VL: B4 VL
# B6: DOC2-RHBXRKC (antibody, human IgG1, kappa, V domains shown)
# VH: B4 VH
# VL: B4 VL with S69I, D76Y
# B7: DOC2-RHAXRKA (antibody, human IgG1, kappa, V domains shown)
# VH: B4 VH with S69T, I115T
# VL: B4 VL with V54I, F93Y
# notes: also called DOC2-reshaped
# B8: DOC2-RHBXRKA (antibody, human IgG1, kappa, V domains shown)
# VH: B4 VH
# VL: B4 VL with V54I, F93Y
# B9: DOC3-RH09XRKA (antibody, human IgG1, kappa, V domains shown)
# VH: EVQLVESGGGLVQPGGSLRLSCAVSGFSLTRYDLSWVRQAPGKGLEWLGVIWTGGGTNYNSAFMSRFSISKDNSKNTVFLQMNSLRAEDTAVYYCARENYYNRRGYFDVWGQGTTVTVSS
# VL: B1 VL
# B10: DOC3-RH09XRKC (antibody, human IgG1, kappa, V domains shown)
# VH: B9 VH
# VL: B1 VL with E1Q, I57V
# B11: DOC2-ChXRKA (antibody, human IgG1, kappa, V domains shown)
# VH: B2 VH
# VL: B4 VL with V54I, F93Y
# B12: DOC3-RH03XRKA (antibody, human IgG1, kappa, V domains shown)
# VH: B9 VH with F67L, S68T, K71R, V78L, F79Y, A96V
# VL: B1 VL
# Molecular target: T1, human CCR2
# Assay: cell binding, human PBMCs
row,binding result,Binder
1,binds,B1

# Molecular target: T1, human CCR2
# Assay: cell binding, human monocytes
row,binding result,Binder
1,binds,B2
2,binds,B3

# Molecular target: T1, human CCR2
# Assay: cell binding, primary human monocytes
row,binding result,Binder
1,binds,B4
2,binds,B5
3,binds,B6
4,binds,B7
5,binds,B8
6,binds,B9
7,binds,B10

# Molecular target: T2, Marmoset monkey (Callithrix jacchus) …
# Assay: cell binding, primary marmoset monocytes
row,binding result,Binder
1,no binding,B4
2,no binding,B5
3,no binding,B6
4,no binding,B8
5,no binding,B11
6,no binding,B9
7,no binding,B10

# Molecular target: T2, Marmoset monkey (Callithrix jacchus) …
# Assay: cell binding, primary marmoset monocytes (marmoset blood)
row,binding result,Binder
1,no binding,B1
2,no binding,B12
